# The supplement of paper PMC9112550, “Optimization of the antimicrobial peptide Bac7 by deep mutational scanning” (BMC Biology, 2022)
# System: Escherichia coli TOP10
# Experiment: shrunken log2 fold change of peptide-encoding DNA abundance (4.5 h post-induction vs induction); higher = less antimicrobial activity (less host growth inhibition)
# Details: time post-induction: 4.5 h; library: site-saturation at positions 5, 18, 19, 20
# 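Further: peptides expressed intracellularly from a pBAD plasmid library in pooled LB shake-flask culture, induced with 0.3% L-arabinose, DNA abundance read by NGS, three biological replicates, DESeq2 with apeglm shrinkage.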
row,Sequence,shrunken log2 fold change
1,RRIRPRPPRLPRPRPRPCGQPRP,0.311
2,RRIRLRPPRLPRPRPRPNILPRP,-0.634
3,RRIRDRPPRLPRPRPRPWFTPRP,-0.175
4,RRIRLRPPRLPRPRPRPTDHPRP,-0.323
5,RRIRDRPPRLPRPRPRPVFKPRP,-0.0946
6,RRIRVRPPRLPRPRPRPASGPRP,-0.188
7,RRIRVRPPRLPRPRPRPQKKPRP,-0.117
8,RRIRTRPPRLPRPRPRPAEIPRP,0.083
9,RRIRERPPRLPRPRPRPVQMPRP,-0.115
10,RRIRNRPPRLPRPRPRPITDPRP,-1.28
11,RRIRSRPPRLPRPRPRPGAYPRP,-0.0377
12,RRIRWRPPRLPRPRPRPFVEPRP,-0.436
13,RRIRWRPPRLPRPRPRPVTIPRP,-0.269
14,RRIRSRPPRLPRPRPRPFLKPRP,-0.632
15,RRIRARPPRLPRPRPRPLQYPRP,0.00717
16,RRIRMRPPRLPRPRPRPQLAPRP,0.598
17,RRIRFRPPRLPRPRPRPSNLPRP,-0.56
18,RRIRFRPPRLPRPRPRPWPRPRP,0.626
19,RRIRQRPPRLPRPRPRPCYGPRP,-0.0796
20,RRIRARPPRLPRPRPRPVYMPRP,-0.436
21,RRIRFRPPRLPRPRPRPITHPRP,-0.49
22,RRIRKRPPRLPRPRPRPYWHPRP,-0.684
23,RRIRTRPPRLPRPRPRPNKWPRP,0.0213
24,RRIRFRPPRLPRPRPRPSPGPRP,-0.101
25,RRIRKRPPRLPRPRPRPDASPRP,0.187

row,Sequence,shrunken log2 fold change
1,RRIRQRPPRLPRPRPRPKRKPRP,0.684
2,RRIRRRPPRLPRPRPRPVSGPRP,0.366
3,RRIRWRPPRLPRPRPRPINNPRP,-0.659
4,RRIRYRPPRLPRPRPRPTEMPRP,-0.306
5,RRIRMRPPRLPRPRPRPMAFPRP,0.102
6,RRIRNRPPRLPRPRPRPFKMPRP,-0.258
7,RRIRLRPPRLPRPRPRPQNIPRP,-0.512
8,RRIRCRPPRLPRPRPRPCEKPRP,0.0534
9,RRIRHRPPRLPRPRPRPNGHPRP,-0.0552
10,RRIRMRPPRLPRPRPRPIVIPRP,-0.0284
11,RRIRMRPPRLPRPRPRPAGFPRP,0.733
12,RRIRQRPPRLPRPRPRPTSTPRP,-0.0784
13,RRIRTRPPRLPRPRPRPTGSPRP,0.0948
14,RRIRRRPPRLPRPRPRPRAKPRP,0.203
15,RRIRERPPRLPRPRPRPNHVPRP,-0.25
16,RRIRYRPPRLPRPRPRPFEEPRP,-0.0344
17,RRIRWRPPRLPRPRPRPENFPRP,0.00343
18,RRIRFRPPRLPRPRPRPAINPRP,-0.239
19,RRIRIRPPRLPRPRPRPDLEPRP,-0.0323
20,RRIRNRPPRLPRPRPRPQSCPRP,-0.00689
21,RRIRQRPPRLPRPRPRPHCCPRP,-0.0421
22,RRIRHRPPRLPRPRPRPSWWPRP,0.348
23,RRIRGRPPRLPRPRPRPPCGPRP,0.554
24,RRIRGRPPRLPRPRPRPRLCPRP,1.19
25,RRIRFRPPRLPRPRPRPTNHPRP,-0.536

row,Sequence,shrunken log2 fold change
1,RRIRDRPPRLPRPRPRPTACPRP,0.388
2,RRIRVRPPRLPRPRPRPGMTPRP,0.177
3,RRIRCRPPRLPRPRPRPKYGPRP,0.0136
4,RRIRNRPPRLPRPRPRPVFTPRP,-0.349
5,RRIRFRPPRLPRPRPRPRLFPRP,-0.0286
6,RRIRLRPPRLPRPRPRPTKDPRP,-0.183
7,RRIRSRPPRLPRPRPRPGGDPRP,0.514
8,RRIRWRPPRLPRPRPRPFTPPRP,-0.0823
9,RRIRGRPPRLPRPRPRPVKGPRP,0.276
10,RRIRFRPPRLPRPRPRPSVCPRP,-0.16
11,RRIRWRPPRLPRPRPRPEEFPRP,0.023
12,RRIRIRPPRLPRPRPRPTVAPRP,0.334
13,RRIRQRPPRLPRPRPRPSFAPRP,0.0485
14,RRIRARPPRLPRPRPRPTSVPRP,0.52
15,RRIRERPPRLPRPRPRPAGWPRP,0.555
16,RRIRIRPPRLPRPRPRPCKEPRP,1.82
17,RRIRHRPPRLPRPRPRPIHLPRP,-0.541
18,RRIRMRPPRLPRPRPRPQQLPRP,-0.0103
19,RRIRWRPPRLPRPRPRPLWWPRP,0.927
20,RRIRFRPPRLPRPRPRPLVYPRP,-0.631
21,RRIRGRPPRLPRPRPRPLFIPRP,-0.234
22,RRIRIRPPRLPRPRPRPGHCPRP,-0.247
23,RRIRSRPPRLPRPRPRPQIYPRP,-0.354
24,RRIRIRPPRLPRPRPRPMDTPRP,0.0627
25,RRIRARPPRLPRPRPRPIGMPRP,0.0267
